Experimental data as given in patent US20110059888A1.
[ ]: non-standard residue; d: D form. Arg(Me) = CNC(=N)NCCC[C@H](N)C(=O)O; Dap(CONH2) = NC(=O)NC[C@H](N)C(=O)O; Ala(cPr) = N[C@@H](CC1CC1)C(=O)O; Hyp = O=C(O)[C@@H]1C[C@@H](O)CN1; Cha = N[C@@H](CC1CCCCC1)C(=O)O; Cba = N[C@@H](CC1CCC1)C(=O)O; Dap = NC[C@H](N)C(=O)O

Molecular target: human OT7T175 (metastin receptor) (human) (UniProt Q969F8)
Test: cell-based or functional assay

Chain of UniProt Q969F8 (Q969F8 whole entry L364H): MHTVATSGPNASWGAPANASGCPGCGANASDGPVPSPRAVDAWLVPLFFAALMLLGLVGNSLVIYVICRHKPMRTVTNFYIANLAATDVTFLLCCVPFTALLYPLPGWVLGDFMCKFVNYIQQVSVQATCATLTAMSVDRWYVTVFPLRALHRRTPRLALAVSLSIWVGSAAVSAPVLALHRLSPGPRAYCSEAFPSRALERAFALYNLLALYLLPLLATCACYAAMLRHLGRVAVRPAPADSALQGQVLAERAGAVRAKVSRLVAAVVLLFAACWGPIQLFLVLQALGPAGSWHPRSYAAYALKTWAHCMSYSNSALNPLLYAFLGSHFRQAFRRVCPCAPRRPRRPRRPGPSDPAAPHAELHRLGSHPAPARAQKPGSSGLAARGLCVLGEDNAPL

Row | Binder | Specific Activity (EC50 of test compound based on EC50 of Metastin (45-54); intracellular calcium, FLIPR) (ratio to EC50 of Metastin (45-54))
1 | Ac-[dY]ENT[Cha]G[Ala(cPr)]RW-NH2 (SMILES CC(=O)N[C@H](Cc1ccc(O)cc1)C(=O)N[C@@H](CCC(=O)O)C(=O)N[C@@H](CC(N)=O)C(=O)N[C@H](C(=O)N[C@@H](CC1CCCCC1)C(=O)NCC(=O)N[C@@H](CC1CC1)C(=O)N[C@@H](CCCNC(=N)N)C(=O)N[C@@H](Cc1c[nH]c2ccccc12)C(N)=O)[C@@H](C)O) [des(1)-Ac-[D-Tyr2,Glu3,Thr5,Cha6,Ala(cPr)8,Trp10]MS10] | 0.4
2 | Ac-[dY][Hyp][Dap(CONH2)]T[Cha]G[Ala(cPr)][Arg(Me)]W-NH2 (SMILES CNC(=N)NCCC[C@H](NC(=O)[C@H](CC1CC1)NC(=O)CNC(=O)[C@H](CC1CCCCC1)NC(=O)[C@@H](NC(=O)[C@H](CNC(N)=O)NC(=O)[C@@H]1C[C@@H](O)CN1C(=O)[C@@H](Cc1ccc(O)cc1)NC(C)=O)[C@@H](C)O)C(=O)N[C@@H](Cc1c[nH]c2ccccc12)C(N)=O) [des(1)-Ac-[D-Tyr2,Hyp3,Alb4,Thr5,Cha6,Ala(cPr)8,Arg(Me)9,Trp10]MS10] | 0.5
3 | Ac-[dY][Hyp][Dap(CONH2)][Dap][Cha]G[Ala(cPr)][Arg(Me)]W-NH2 (SMILES CNC(=N)NCCC[C@H](NC(=O)[C@H](CC1CC1)NC(=O)CNC(=O)[C@H](CC1CCCCC1)NC(=O)[C@H](CN)NC(=O)[C@H](CNC(N)=O)NC(=O)[C@@H]1C[C@@H](O)CN1C(=O)[C@@H](Cc1ccc(O)cc1)NC(C)=O)C(=O)N[C@@H](Cc1c[nH]c2ccccc12)C(N)=O) [des(1)-Ac-[D-Tyr2,Hyp3,Alb4,Dap5,Cha6,Ala(cPr)8,Arg(Me)9,Trp10]MS10] | 0.7
4 | Ac-[dY][Hyp][Dap(CONH2)]S[Cha]G[Ala(cPr)][Arg(Me)]W-NH2 (SMILES CNC(=N)NCCC[C@H](NC(=O)[C@H](CC1CC1)NC(=O)CNC(=O)[C@H](CC1CCCCC1)NC(=O)[C@H](CO)NC(=O)[C@H](CNC(N)=O)NC(=O)[C@@H]1C[C@@H](O)CN1C(=O)[C@@H](Cc1ccc(O)cc1)NC(C)=O)C(=O)N[C@@H](Cc1c[nH]c2ccccc12)C(N)=O) [des(1)-Ac-[D-Tyr2,Hyp3,Alb4,Ser5,Cha6,Ala(cPr)8,Arg(Me)9,Trp10]MS10] | 0.5
5 | Ac-[dY][Hyp][Dap(CONH2)]G[Cha]G[Ala(cPr)][Arg(Me)]W-NH2 (SMILES CNC(=N)NCCC[C@H](NC(=O)[C@H](CC1CC1)NC(=O)CNC(=O)[C@H](CC1CCCCC1)NC(=O)CNC(=O)[C@H](CNC(N)=O)NC(=O)[C@@H]1C[C@@H](O)CN1C(=O)[C@@H](Cc1ccc(O)cc1)NC(C)=O)C(=O)N[C@@H](Cc1c[nH]c2ccccc12)C(N)=O) [des(1)-Ac-[D-Tyr2,Hyp3,Alb4,Gly5,Cha6,Ala(cPr)8,Arg(Me)9,Trp10]MS10] | 0.7
6 | Ac-[dY][Hyp][Dap(CONH2)]A[Cha]G[Ala(cPr)][Arg(Me)]W-NH2 (SMILES CNC(=N)NCCC[C@H](NC(=O)[C@H](CC1CC1)NC(=O)CNC(=O)[C@H](CC1CCCCC1)NC(=O)[C@H](C)NC(=O)[C@H](CNC(N)=O)NC(=O)[C@@H]1C[C@@H](O)CN1C(=O)[C@@H](Cc1ccc(O)cc1)NC(C)=O)C(=O)N[C@@H](Cc1c[nH]c2ccccc12)C(N)=O) [des(1)-Ac-[D-Tyr2,Hyp3,Alb4,Ala5,Cha6,Ala(cPr)8,Arg(Me)9,Trp10]MS10] | 0.5

Now from value to binder:

Row | Specific Activity (EC50 of test compound based on EC50 of Metastin (45-54); intracellular calcium, FLIPR) (ratio to EC50 of Metastin (45-54)) | Binder
7 | 0.5 | Ac-[dY][Hyp]NT[Cha]G[Ala(cPr)]RW-NH2 (SMILES CC(=O)N[C@H](Cc1ccc(O)cc1)C(=O)N1C[C@H](O)C[C@H]1C(=O)N[C@@H](CC(N)=O)C(=O)N[C@H](C(=O)N[C@@H](CC1CCCCC1)C(=O)NCC(=O)N[C@@H](CC1CC1)C(=O)N[C@@H](CCCNC(=N)N)C(=O)N[C@@H](Cc1c[nH]c2ccccc12)C(N)=O)[C@@H](C)O) [des(1)-Ac-[D-Tyr2,Hyp3,Thr5,Cha6,Ala(cPr)8,Trp10]MS10]
8 | 1.3 | Ac-[dY][Hyp][Dap(CONH2)]T[Cha]GLRW-NH2 (also: Gly7-Leu8 amide bond replaced by -CH2CH2-) [des(1)-Ac-[D-Tyr2,Hyp3,Alb4,Thr5,Cha6,Gly7Ψ(CH2CH2)Leu8,Trp10]MS10]
9 | 0.7 | Ac-[dY][Hyp]NTFGL[Arg(Me)]W-NH2 (also: Phe5-Gly6 amide bond replaced by CH2S) [des(1)-Ac-[D-Tyr2,Hyp3,Thr5,Phe6Ψ(CH2S)Gly7,Arg(Me)9,Trp10]MS10]
10 | 1.1 | Ac-[dY][Hyp]NT[Cha]GLRW-NH2 (also: Gly7Ψ(CH2CH2)Leu8: amide between Gly and Leu replaced by -CH2CH2-) [des(1)-Ac-[D-Tyr2,Hyp3,Thr5,Cha6,Gly7Ψ(CH2CH2)Leu8,Trp10]MS10]
11 | 1.1 | Ac-[dY][Hyp][Dap(CONH2)]T[Cha]GL[Arg(Me)]W-NH2 (also: Gly7-Leu8 amide bond replaced by -CH2CH2-) [des(1)-Ac-[D-Tyr2,Hyp3,Alb4,Thr5,Cha6,Gly7Ψ(CH2CH2)Leu8,Arg(Me)9,Trp10]MS10]
12 | 0.7 | Ac-[dY][Hyp]NT[Cba]G[Ala(cPr)][Arg(Me)]W-NH2 [des(1)-Ac-[D-Tyr2,Hyp3,Thr5,Ala(cBu)6,Ala(cPr)8,Arg(Me)9,Trp10]MS10]
13 | 0.5 | Ac-[dY][Hyp]NT[Cha]G[Cba][Arg(Me)]W-NH2 [des(1)-Ac-[D-Tyr2,Hyp3,Thr5,Cha6,Ala(cBu)8,Arg(Me)9,Trp10]MS10]
14 | 1.3 | Ac-[dY][Hyp]NTF[Dap]L[Arg(Me)]W-NH2 [des(1)-Ac-[D-Tyr2,Hyp3,Thr5,Dap7,Arg(Me)9,Trp10]MS10]
